The text below walks through data of US20210017226A1, “METHOD OF GENERATING INTERACTING PEPTIDES” (Peption, LLC, priority 2017, published 2021).

Test [1] deals with T1, PTD12 (Sp-C9_CAA813-821), synthetic Cas9 target peptide […] (Streptococcus pyogenes). Kind of test: dot blot densitometry.
Test [2] addresses T1, PTD12 (Sp-C9_CAA813-821), synthetic …. As to the kind of experiment: dot blot densitometry, same amount of purified proteins.

Ends that are not written are not given here.

B1: C9-813-CAA4 (tetramer, parallel-linker-antiparallel-linker-parallel-linker-antiparallel), recombinan (designed binder)
chain: MHHHHHHLLSVEVQQLCYPENLEYLFIEKLRSEAEGNGTIDFELLQVDVILLKTGEVNNLEQIKIRLF
In test [1], B1 displayed a fold stronger interaction than the monomers (C9-813-92P, C9-813-93P) of 1.5 fold.

In test [1], LLQVDVILLCYPENLEQIKIRLFGSGSHHHHHH (designed binder, also: dimer) [PTD14 (Sp-C9_CAA813-821PAPH), synthetic His-tagged CAAP oligopeptide dimer] had a fold stronger interaction than the monomer PTD13 of 2 fold and a fold stronger interaction than the sAb monomer PTD13 of 2 fold.

With MHHHHHHELLLSVEVQQLCYPENLEYLFIEKL (designed binder, not shown: small tags and cut ends; large carriers) [C9-813-CAA2 (dimer, parallel-linker-antiparallel), recombinant CAAP oligopeptide-AP fusion protein], in test [2], the fold stronger interaction than C9-813-92P or C9-813-93P (monomers) amounted to 2.5 fold and the fold stronger interaction than C9-813-CAA4 (tetramer) was 1.5 fold.
